Experiment [1] addresses T1, VLA-4 (integrin alpha4 beta1) on the human B cell line Ramos (human, UniProt P13612 34-1032; P05556 21-798).
T1 construct: whole, on cells; also called α4β1; VLA-4-expressing cells
Kind of experiment: FACS, half-maximal binding to Ramos cells. As for the experimental part:
Briefly, 25 μl cells (4×10^6/ml in FACS buffer (PBS 2% FBS, 0.1% NaN₃) on ice are added to 5 μl of 5 μg/ml FITC or phycoerythrin (PE) conjugated antibody in FACS buffer, and incubated in V-bottomed microtiter wells on ice for 30 minutes. To the wells, 125 μl of FACS buffer is added, the plates are centrifuged at 350×g for 5 minutes, and the supernatant is shaken off. To each well is added 125 μl FACS buffer, then the cells are transferred to 12×75 mm Falcon polystyrene tubes and resuspended to a final volume of 250 μl in FACS buffer. The mixture is analyzed on a Becton Dickinson FACStar. The results of the FACS assays as represented by the calculated half-maximal binding […] Using humanized recombinant anti-VLA-4 antibodies made according to the present invention are shown in Table III and the number (n) of experiments performed for each value is indicated for the humanized antibodies. […] Murine HP1/2 binds half-maximally to Ramos cells at 15 ng/ml. The AS/SVMDY humanized antibody binds half-maximally to Ramos cells at 12 ng/ml. Thus, the two assays (i.e., adhesion and FACS assays) show an excellent correlation for the murine antibody and the humanized AS/SVMDY antibody.
Background: Flow cytometry measures light scatter and fluorescence of single cells or particles in a stream.

Experiment [2] has as its target T1, VLA-4 (integrin alpha4 beta1) on the …. Kind of experiment: adhesion assay: inhibition of Ramos cell binding to immobilized rsVCAM1. The method, then:
(§1) Recombinant soluble VCAM1 was prepared and purified essentially as described by Lobb et al., 1991a. Soluble VCAM is diluted to 10 μg/ml in 0.05 M NaHCO₃, (15 mM NaHCO₃, 35 mM Na₂CO₃) pH 9.2. Then 50 μl/well is added into a Linbro Titertek polystyrene 96 well plate, flat bottom, Flow Labs catalog #76-231-05. The plate is incubated at 4° C. overnight.
(§2) For antibody blocking studies, 100 μl/well of murine HP1/2 MAb (anti-VLA-4) typically at 10 μg/ml in RPMI, 2% FBS are added to the rsVCAM1 coated plates and incubated for 30 minutes at room temperature prior to cell binding as described above. MAb HP1/2 (anti-VLA-4) or any recombinant humanized anti-VLA-4 antibody prepared as described herein must be preincubated with labelled cells for 30 minutes at room temperature prior to the cell binding. Concentrations of the antibodies preincubated will vary, but generally concentrations were in the range of about 1 μg/ml.
(§3) The potency of recombinant Stage 0, Stage 1, Stage 2 and Stage 3 antibodies having the VK1 (DQL) light chain that had been purified from stably transfected YB2/0 cell lines was measured in the adhesion assay, as shown in Table III.

Experiment [3] shares this target. Kind of experiment: adhesion assay: inhibition of Ramos cell binding to immobilized rsVCAM1; molar value as printed. As for the experimental part: as §1, §2
In these adhesion assays, murine HP1/2 inhibits Ramos cell binding completely at about 40 ng/ml, and half maximally at about 15 ng/ml ([…]). The results of adhesion assays as represented by the calculated half-maximal binding constants using humanized recombinant anti-VLA-4 antibodies made according to the present invention are shown in Table III. The number-(n) of experiments performed for each value is indicated for the recombinant humanized antibodies.

Experiment [4] has the same target. Kind of experiment: adhesion assay: inhibition of Ramos cell binding to immobilized rsVCAM1 (n = 6). As for the experimental part:
as §1, §2, §3

T1 sequence (P13612 34-1032, chain 1 of 2): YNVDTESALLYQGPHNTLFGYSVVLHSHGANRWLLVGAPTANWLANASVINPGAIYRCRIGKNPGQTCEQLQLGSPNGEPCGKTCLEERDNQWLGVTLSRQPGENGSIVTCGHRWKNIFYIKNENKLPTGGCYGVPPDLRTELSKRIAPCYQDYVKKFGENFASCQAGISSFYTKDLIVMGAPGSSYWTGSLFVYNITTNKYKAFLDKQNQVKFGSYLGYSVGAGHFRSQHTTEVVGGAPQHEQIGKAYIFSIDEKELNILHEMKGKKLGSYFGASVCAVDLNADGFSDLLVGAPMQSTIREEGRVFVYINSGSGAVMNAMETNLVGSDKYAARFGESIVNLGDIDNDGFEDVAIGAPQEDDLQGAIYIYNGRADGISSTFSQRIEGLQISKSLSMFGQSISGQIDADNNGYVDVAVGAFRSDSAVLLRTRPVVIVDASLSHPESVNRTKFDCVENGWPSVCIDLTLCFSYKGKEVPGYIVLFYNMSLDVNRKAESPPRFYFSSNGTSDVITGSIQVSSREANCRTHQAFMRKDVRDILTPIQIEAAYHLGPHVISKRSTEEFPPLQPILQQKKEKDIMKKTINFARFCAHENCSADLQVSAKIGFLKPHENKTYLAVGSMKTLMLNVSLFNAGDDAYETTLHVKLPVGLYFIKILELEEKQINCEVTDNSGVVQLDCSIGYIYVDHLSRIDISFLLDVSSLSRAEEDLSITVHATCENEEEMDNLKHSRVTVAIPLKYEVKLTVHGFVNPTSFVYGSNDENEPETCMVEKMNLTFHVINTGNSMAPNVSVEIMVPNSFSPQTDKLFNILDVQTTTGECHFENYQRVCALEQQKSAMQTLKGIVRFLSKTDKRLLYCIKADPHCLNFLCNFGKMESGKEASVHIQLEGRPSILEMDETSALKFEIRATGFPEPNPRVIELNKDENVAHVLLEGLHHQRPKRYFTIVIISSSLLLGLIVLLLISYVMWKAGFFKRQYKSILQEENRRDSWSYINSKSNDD
T1 sequence (P05556 21-798, chain 2 of 2): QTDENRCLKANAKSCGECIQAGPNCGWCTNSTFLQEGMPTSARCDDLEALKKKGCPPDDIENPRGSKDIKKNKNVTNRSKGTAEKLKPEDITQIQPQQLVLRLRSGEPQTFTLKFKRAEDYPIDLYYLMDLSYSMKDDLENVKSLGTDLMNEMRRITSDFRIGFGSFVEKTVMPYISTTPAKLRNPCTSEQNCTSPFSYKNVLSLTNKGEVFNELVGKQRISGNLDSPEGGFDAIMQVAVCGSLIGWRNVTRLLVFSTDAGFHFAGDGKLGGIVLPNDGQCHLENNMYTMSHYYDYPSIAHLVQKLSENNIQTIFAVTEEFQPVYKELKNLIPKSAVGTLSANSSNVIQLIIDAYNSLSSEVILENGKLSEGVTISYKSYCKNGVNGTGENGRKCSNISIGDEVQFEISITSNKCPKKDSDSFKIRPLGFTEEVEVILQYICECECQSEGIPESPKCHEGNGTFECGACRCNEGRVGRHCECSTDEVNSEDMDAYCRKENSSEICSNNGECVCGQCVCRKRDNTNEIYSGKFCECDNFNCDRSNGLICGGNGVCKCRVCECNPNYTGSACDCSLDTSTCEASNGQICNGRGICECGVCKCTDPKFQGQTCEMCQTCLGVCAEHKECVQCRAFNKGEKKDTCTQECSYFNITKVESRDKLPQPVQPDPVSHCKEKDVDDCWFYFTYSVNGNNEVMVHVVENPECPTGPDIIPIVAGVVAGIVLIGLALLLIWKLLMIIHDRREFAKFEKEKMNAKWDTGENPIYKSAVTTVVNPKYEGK

B1: murine HP1/2 monoclonal antibody (antibody, mouse IgG1, V domains shown)
VH: VKLQQSGAELVKPGASVKLFCTASGFNIKDTYMHWVKQRPQQGLEWIGRIDPASGDTKYDPKFQVKATITADTSSNTAWLQLSSLTSEDTAVYYCADGMWVSTGYALDFWGQGTTVTVSS
VL: SIVMTQTPKFLLVSAGDRVTITCKASQSVTNDVAWYQQKPGQSPKLLIYYASNRYTGVPDRFTGSGYGTDFTFTISTVQAEDLAVYFCQQDYSSPYTFGGGTKLEI
notes: The first eight residues of VH and the first four of VK in the listing are dictated by the PCR primers; also called MAb HP1/2 (anti-VLA-4); HP1/2 MAb
Take B1: the EC50 (commonly the concentration giving half of the maximal effect) in experiment [1] was 0.015 mg/L. Besides, the IC50 – broadly, the concentration at which inhibition is half-maximal – in experiment [2] was 0.015 mg/L; in experiment [3] it was about 10 µM.

B2: Stage 1 humanized anti-VLA-4 antibody with VK1 (DQL) light chain (antibody, V domains shown)
VH: QVQLQESGPGLVRPSQTLSLTCTVSGFNIKDTYMHWVRQPPGRGLEWIGRIDPASGDTKYDPKFQVRVTMLVDTSKNQFSLRLSSVTAADTAVYYCADGMWVSTGYALDFWGQGTTVTVSS
VL: DIQLTQSPSSLSASVGDRVTITCKASQSVTNDVAWYQQKPGKAPKLLIYYASNRYTGVPSRFSGSGSGTDFTFTISSLQPEDIATYYCQQDYSSPYTFGQGTKVEIKR
notes: Purified from YB2/0 cells; also called Stage 1 (Humanized heavy chain)
B2 showed an IC50 in experiment [4] of 0.228 mg/L.
